The conditions of data set [1]: aqueous solution administered into vitreous from animals and people; cited from earlier work.
Data set [2] in a line: In vitro gel formation in mock vitreous and homogenization. Type of data set: physicochemical. How it is done: In alternative embodiments, microparticles can be prepared and fragmented. For example, a vitreous-like solution (“mock vitreous”) was prepared with sodium hyaluronate and used for in vitro pre-fragmented gel formation experiments. The AXT107 peptide solution is added to the mock vitreous, upon which the peptide forms a gel.

This is an account of results in patent US20260325600A1, “FORMULATIONS FOR INTRAOCULAR DELIVERY OF PEPTIDES DERIVED FROM TYPE IV COLLAGEN” (ASCLEPIX THERAPEUTICS, INC., priority 2022, published 2026).

Turning to LRRFSTAPFAFIDINDVINF [AXT107], in data set [1], the “gel formation in vitreous” value is “precipitate to form a gel-like substance”. Further, the “product of homogenization of gel” value in data set [2] (gels homogenized after formation in mock vitreous) is “suspended microparticles comparable to those formed in excipient formulation with mixing”. Besides, the “gel formation in mock vitreous” value in data set [2] (mock vitreous with sodium hyaluronate) is recorded as “forms a gel”.
